Data taken from article PMC3578790, “Tight Interconnection and Multi-Level Control of Arabidopsis MYB44 in MAPK Cascade Signalling”.

Legend:
MYB44 S145D = MYB44 S145D (Arabidopsis thaliana? (Arabidopsis, …, UniProt Q9FDW1 1-305, S145D)); assay: EMSA; no discernible difference from wild type; 10 mM Tris pH 8.0, 5 mM MgCl2, 100 mM KCl, 0.02% Triton X-100, 0.1 mg/ml BSA, 0.25% Tween, 2.5 mM DTT, 3 ng/ul poly(dIdC); 30 min room temperature; 5% PAGE in 0.5x TBE or TAE (TAE main) at 4 C; conditions: protein: recombinant; label: 5' Dy782 (Methods; called IRDye in Results); (only one strand printed)
Sequence of MYB44 S145D (Arabidopsis thaliana? (Q9FDW1 whole entry S145D): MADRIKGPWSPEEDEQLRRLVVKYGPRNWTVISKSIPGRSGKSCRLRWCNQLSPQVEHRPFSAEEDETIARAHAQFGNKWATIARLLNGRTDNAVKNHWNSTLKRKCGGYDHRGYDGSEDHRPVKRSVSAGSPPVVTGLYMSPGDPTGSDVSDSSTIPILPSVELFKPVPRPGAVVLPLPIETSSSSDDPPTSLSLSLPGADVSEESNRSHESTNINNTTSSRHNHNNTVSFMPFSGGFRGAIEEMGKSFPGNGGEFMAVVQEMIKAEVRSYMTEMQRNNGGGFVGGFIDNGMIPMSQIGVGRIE

MYB44 S145A = MYB44 S145A (Arabidopsis thaliana? (Arabidopsis, …, UniProt Q9FDW1 1-305, S145A)); assay: as above; conditions: protein: recombinant; label: 5' Dy782 (Methods; called IRDye in Results); (only one strand printed)
Sequence of MYB44 S145A (Arabidopsis thaliana? (Q9FDW1 whole entry S145A): as the sequence (Q9FDW1 whole entry S145D) above, with D145A counted along it

B1: MBSII (dsDNA)
DNA 1: AGCTTCAAAAGTTAGTTACG
DNA 2: CGTAACTAACTTTTGAAGCT
binding result (MYB44 S145D): binds | binding result (MYB44 S145A): binds
